Assay results as given in patent publication US20240417687A1, “THYMIC CELLS AND METHODS OF MAKING” (Thymmune Therapeutics, Inc., priority 2021, published 2024).

Legend:
[1] = system: residual undifferentiated pluripotent cells; experiment: Teratoma formation after transplantation of TEP populations treated with YM155; assay type: in vivo; settings: TEP population treated prior to transplantation versus not treated
Experimental: An important safety issues to address in iPSC-derived cell therapy products was the possible presence of residual undifferentiated pluripotent cells in the end. Such iPSCs in the product can give rise to teratomas. […] YM155, a Survivin inhibitor and PluriSIn-1, a stearoyl-CoA desaturase inhibitor was tested.

TEP populations = experiment: Oct4 and Nanog expression in TEP populations treated with PluriSIn-1; assay type: cell-based, human
Experimental: On days 19-22, cells were cultured in TEC media. On day19, equal amount of freshly made TEC media (500 μl) was replaced gently without disturbing the aggregates. TEC media was prepared to include Basal Media: DMEM-F12, FGF10 (50 ng/ml), IL-22 (20 ng/ml), FGF7/KGF (50 ng/ml), RANKL/TRANCE (50 ng/ml), BMP4 (50 ng/ml), FGF8b (50 ng/ml), CHIRR99 (2 μM), Ascorbic Acid (10 μM), Insulin-Transferrin-Selenium (ITS-G) (1:1000), KSR (0.0025%), Pen strep (1:200), B27 (without VIT A) (1:200), Glutamax (1:100), BME (1:100), N2(1:100), NEAA (1:400), Glutamax (100×), and BME (100×). On day 20, equal amount of freshly prepared TEC media (500 ul) along with Plurisin #1(20 μM) was added (Groups-Untreated and Treated). On day21, equal amount of freshly made TEC media (500 ul) was replaced gently without disturbing the aggregates. On day22, the cells were treated with Accutase and were frozen using Hypothermosol-FRS Media. The cells were split into the following groups for experimentation. Group 37FT1 (8.85M Treated and 9.5M untreated groups) was thawed in 3D and maintained in TEC media (Y27-10 uM on day1) for 6 days. On Day 6, cells were treated with 20 μM Plurisin #1 (24 hours) and were transplanted on day7 into 4 animals. Group 37FT2 (8.85M per plate) was thawed in 3D and maintained in TEC media (Y27-10 uM on day1) for 6 days. […]

[2] = system: Spheroids induced to differentiate from iPSC state to TEP; experiment: Effect of timing of BMP addition on developmental gene expression in spheroids differentiating from iPSC to TEP; assay type: cell-based, human; settings: with or without BMP at early and late TEP stages
Text: Differentiation of DE cells to thymic cells can be promoted by adding factors known to be important for DE to thymic differentiation. An example is BMP which is known to be crucial for the development and maturation of thymic progenitor cells from the third pharyngeal pouch. The impact of the timing of addition of BMP was explored (FIG. 2). Spheroids were induced to differentiate from iPSC state to TEP and timing of addition of BMP was varied. At different stages (DE, AFE, VPE, early and late TEP) spheroids were collected and analyzed for biomarkers related to the different stages. We compared condition with or without BMP at early and late TEP stages.

TEPs = experiment: Extended culture of TEPs with TEP medium supplemented with growth factors (Experiments 29, 30); assay type: cell-based, human; settings: TEP medium supplemented with FGF7, FGF10 and RANKL together, Experiment 29 and 30
Experimental: For this differentiation step, VPE cells were cultured in thymic cell media e.g. TEP media or TEC media. On days 13-18, media was replaced for Experiment 29 TEP media containing Basal Media: DMEM-F12, FGF10 (50 ng/ml), BMP4 (50 ng/ml), FGF8b (50 ng/ml), CHIRR99 (2 μM), Ascorbic Acid (10 μM), Insulin-Transferrin-Selenium (ITS-G) (1:1000), KSR (0.0025%), Pen strep (1:200), B27 (without VIT A) (1:200), Glutamax (1:100), BME (1:100), N2(1:100), and NEAA (1:400). On day 13, equal amount of freshly made TEP media (500 ul) was added gently without disturbing the aggregates. On day 14-18, 50% of supernatant was removed and freshly prepared TEP media (500 ul) was added per well. On days 19-22, media was replaced with TEC media containing Basal Media: DMEM-F12, FGF10 (50 ng/ml), FGF7/KGF (50 ng/ml), RANKL/TRANCE (50 ng/ml), BMP4 (50 ng/ml), FGF8b (50 ng/ml), CHIRR99 (2 μM), Ascorbic Acid (10 μM), Insulin-Transferrin-Selenium (ITS-G) (1:1000), KSR (0.0025%), Pen strep (1:200), B27 (without VIT A) (1:200), Glutamax (1:100), BME (1:100), N2(1:100), NEAA (1:400), Glutamax (100×), and BME (100×). On days 20-22, 50% of supernatant was removed and freshly prepared TEC media (500 ul) was added per well. On day 22, Experiment 29B was reseeded as single cells in suspension (3D) and on Geltrex coated plates (2D). Remaining cells were frozen. Frozen Experiment 29B were thawed in suspension and maintained in TEC media.
For this differentiation step, VPE cells were cultured in thymic cell media e.g. TEP media or TEC media. […]
In experiments 16 through 23, the expression of FOXN1 and other markers expression by Day5 of TEP differentiation. […] In Exp 29-TEPs, FOXN1 expression was detected at week 1 of TEP stage. When TEPs were reseeded into 2D culture, no FOXN1 expression was detected after 1 week but FOXN1 was detected by week 2 in culture. In Exp29B-TEP2-3D, where single cell TEP were resuspended into 3D-aggregate culture, FOXN1 expression was detected already by 1 week and became even higher by second week.

For `COCCn1c2c([n+](Cc3cnccn3)c1C)C(=O)c1ccccc1C2=O` [YM155], the teratomas in vivo [1] was “smaller teratomas”.

With `O=C(NNc1ccccc1)c1ccncc1` [PluriSIn-1] the “Oct4 and Nanog expression” value (TEP populations; one 24-hour pulse before freezing and one 24-hr pulse after thawing, compared to one pulse) was “lower Oct4 and Nanog expression” and the “Oct4 and Nanog expression” value (TEP populations; one dose alone, different iPSC cell line) was “sufficient to reduce Oct4 and Nanog expression”.

B1: BMP: growth factor BMP4, crucial for development and maturation of thymic progenitor cells (protein, UniProt P12644 293-408, looked up)
Bone morphogenetic protein 4: SPKHHSQRARKKNKNCRRHSLYVDFSDVGWNDWIVAPPGYQAFYCHGDCPFPLADHLNSTNHAIVQTLVNSVNSSIPKACCVPTELSAISMLYLDEYDKVVLKNYQEMVVEGCGCR
modifications: Bone morphogenetic protein 4
notes: growth factor BMP4, crucial for development and maturation of thymic progenitor cells
In the case of B1, the “PAX1 and PAX9 expression” value [2] is reported as “suppressed” and the “TBX1 and HOXA3 expression” value [2] is reported as “upregulated”.

B2: FGF7: growth factor important for late maturation of TEPs to TECs (protein, UniProt P21781 32-194, looked up)
Fibroblast growth factor 7: CNDMTPEQMATNVNCSSPERHTRSYDYMEGGDIRVRRLFCRTQWYLRIDKRGKVKGTQEMKNNYNIMEIRTVAVGIVAIKGVESEFYLAMNKEGKLYAKKECNEDCNFKELILENHYNTYASAKWTHNGGEMFVALNQKGIPVRGKKTKKEQKTAHFLPMAIT
B2 was tested, and the “duration of TEP culture while maintaining the expression of FOXN1” value (from here on “duration”) (TEPs) was “extended beyond 5 days and up to 2 weeks”.

B3: FGF10: growth factor important for late maturation of TEPs to TECs (protein, UniProt O15520 38-208, looked up)
Fibroblast growth factor 10: QALGQDMVSPEATNSSSSSFSSPSSAGRHVRSYNHLQGDVRWRKLFSFTKYFLKIEKNGKVSGTKKENCPYSILEITSVEIGVVAVKAINSNYYLAMNKKGKLYGSKEFNNDCKLKERIEENGYNTYASFNWQHNGRQMYVALNGKGAPRRGQKTRRKNTSAHFLPMVVHS
B3 was tested, and the “duration” value (TEPs) was “extended beyond 5 days and up to 2 weeks”.

B4: RANKL: growth factor important for late maturation of TEPs to TECs (protein, UniProt O14788 140-317, looked up)
Tumor necrosis factor ligand …: IRAEKAMVDGSWLDLAKRSKLEAQPFAHLTINATDIPSGSHKVSLSSWYHDRGWAKISNMTFSNGKLIVNQDGFYYLYANICFRHHETSGDLATEYLQLMVYVTKTSIKIPSSHTLMKGGSTKYWSGNSEFHFYSINVGGFFKLRSGEEISIEVSNPSLLDPDQDATYFGAFKVRDID
B4 was tested, and the “duration” value (TEPs) was “extended beyond 5 days and up to 2 weeks”.
